Experimental data reported in publication PMC9482650, “Quantitative fragmentomics allow affinity mapping of interactomes” (Nature Communications, 2022).
Residue numbers refer to the chain shown, from its start. Values belong to the binder of their own block, whether it stands above or below them.

Tests used:
Experiment in all cases: holdup assay
Design in all cases: key: below the threshold = too weak to quantify, mostly under pKd 3.1 to 4
[1] = biological target: T1, ARHGAP21, Q5T5U3
T1 sequence (Q5T5U3 45-169, limits assumed, looked up): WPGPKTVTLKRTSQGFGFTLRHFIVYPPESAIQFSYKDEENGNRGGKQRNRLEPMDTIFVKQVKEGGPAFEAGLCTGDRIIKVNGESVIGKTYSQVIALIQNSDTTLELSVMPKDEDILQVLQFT

[2] = biological target: DLG1_1, Q12959
[3] = biological target: DLG1_2, Q12959
[4] = biological target: DLG1_3, Q12959
[5] = biological target: DLG2_2, Q15700
Sequence of DLG2_2, Q15700 (Q15700 189-283): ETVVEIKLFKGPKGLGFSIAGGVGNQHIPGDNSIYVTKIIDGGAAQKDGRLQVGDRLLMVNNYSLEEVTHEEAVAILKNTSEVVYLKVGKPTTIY

[6] = biological target: T2, DLG3_3, Q92796
T2 sequence (Q92796 374-475, limits assumed, looked up): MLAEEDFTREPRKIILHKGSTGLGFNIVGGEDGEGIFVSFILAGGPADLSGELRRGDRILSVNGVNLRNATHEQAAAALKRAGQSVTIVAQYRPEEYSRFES

[7] = biological target: FRMPD4, Q14CM0
Sequence of FRMPD4, Q14CM0 (Q14CM0 67-160): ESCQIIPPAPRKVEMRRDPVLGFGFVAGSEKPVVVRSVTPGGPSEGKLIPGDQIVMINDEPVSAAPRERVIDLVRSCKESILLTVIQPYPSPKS

[8] = biological target: GRASP, Q7Z6J2
Sequence of GRASP, Q7Z6J2 (Q7Z6J2 96-193): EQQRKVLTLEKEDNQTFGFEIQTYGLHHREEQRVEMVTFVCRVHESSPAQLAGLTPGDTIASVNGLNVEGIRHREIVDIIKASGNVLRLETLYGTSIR

[9] = biological target: GRIP2_3, Q9C0E4
Sequence of GRIP2_3, Q9C0E4 (Q9C0E4 238-339): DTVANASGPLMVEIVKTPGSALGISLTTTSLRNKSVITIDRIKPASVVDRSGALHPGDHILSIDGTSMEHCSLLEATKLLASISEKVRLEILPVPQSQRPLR

[10] = biological target: GRIP2_5, Q9C0E4
Sequence of GRIP2_5, Q9C0E4 (Q9C0E4 544-642): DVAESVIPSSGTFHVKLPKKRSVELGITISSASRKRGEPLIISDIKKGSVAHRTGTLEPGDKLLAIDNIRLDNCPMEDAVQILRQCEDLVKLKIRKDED

[11] = biological target: GRIP2_7, Q9C0E4
Sequence of GRIP2_7, Q9C0E4 (Q9C0E4 934-1023): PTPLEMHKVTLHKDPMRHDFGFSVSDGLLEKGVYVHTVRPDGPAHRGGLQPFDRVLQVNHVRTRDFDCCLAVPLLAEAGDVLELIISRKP

[12] = biological target: IL16_3, Q14005
Sequence of IL16_3, Q14005 (Q14005 1107-1207): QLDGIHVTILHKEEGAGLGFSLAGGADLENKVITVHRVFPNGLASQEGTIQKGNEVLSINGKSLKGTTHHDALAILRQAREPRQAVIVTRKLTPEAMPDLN

[13] = biological target: Inadl_10, Q8NI35
Sequence of Inadl_10, Q8NI35 (Q8NI35 1673-1763): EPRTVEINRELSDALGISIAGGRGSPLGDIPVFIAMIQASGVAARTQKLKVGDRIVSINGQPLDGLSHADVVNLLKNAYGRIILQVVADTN

[14] = biological target: Inadl_5, Q8NI35
Sequence of Inadl_5, Q8NI35 (Q8NI35 673-780): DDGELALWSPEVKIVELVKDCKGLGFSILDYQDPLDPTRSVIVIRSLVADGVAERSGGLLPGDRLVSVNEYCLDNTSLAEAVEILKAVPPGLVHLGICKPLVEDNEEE

[15] = biological target: LDB3, O75112
Sequence of LDB3, O75112 (O75112 1-94): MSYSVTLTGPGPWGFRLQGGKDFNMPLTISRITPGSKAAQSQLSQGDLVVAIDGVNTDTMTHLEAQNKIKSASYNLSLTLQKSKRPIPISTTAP

[16] = biological target: T3, LIN7A, O14910
T3 sequence (O14910 103-200, limits assumed, looked up): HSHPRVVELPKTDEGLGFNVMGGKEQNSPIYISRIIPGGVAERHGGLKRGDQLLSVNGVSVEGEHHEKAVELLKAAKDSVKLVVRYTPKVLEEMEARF

[17] = biological target: T4, LIN7B, Q9HAP6
T4 sequence (Q9HAP6 88-185, limits assumed, looked up): T3 sequence (O14910 103-200, limits assumed, looked up) with S2A, V20I, I35V, E42D, H65Q, K77Q, D78G, K89R

[18] = biological target: LNX1_3, Q8TBB1
Sequence of LNX1_3, Q8TBB1 (Q8TBB1 500-596): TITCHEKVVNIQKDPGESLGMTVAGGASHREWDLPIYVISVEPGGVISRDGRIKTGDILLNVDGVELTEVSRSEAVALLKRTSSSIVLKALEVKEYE

[19] = biological target: MAGI3_2, Q5TCQ9
Sequence of MAGI3_2, Q5TCQ9 (Q5TCQ9 398-503): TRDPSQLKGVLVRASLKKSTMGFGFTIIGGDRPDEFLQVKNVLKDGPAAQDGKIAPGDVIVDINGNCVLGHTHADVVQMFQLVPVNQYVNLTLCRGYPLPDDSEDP

[20] = biological target: MAST2, Q6P0Q8
Sequence of MAST2, Q6P0Q8 (Q6P0Q8 1099-1202): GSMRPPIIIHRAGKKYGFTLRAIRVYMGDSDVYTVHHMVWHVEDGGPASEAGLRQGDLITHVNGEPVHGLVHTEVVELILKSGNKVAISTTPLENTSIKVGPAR

[21] = biological target: T5, MPDZ_5, O75970
T5 sequence (O75970 695-796, limits assumed, looked up): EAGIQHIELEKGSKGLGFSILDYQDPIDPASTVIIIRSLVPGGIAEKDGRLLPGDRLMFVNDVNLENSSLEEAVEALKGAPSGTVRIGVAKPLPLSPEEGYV

[22] = biological target: T6, PARD3B_1, Q8TEW8
T6 sequence (Q8TEW8 196-299, limits assumed, looked up): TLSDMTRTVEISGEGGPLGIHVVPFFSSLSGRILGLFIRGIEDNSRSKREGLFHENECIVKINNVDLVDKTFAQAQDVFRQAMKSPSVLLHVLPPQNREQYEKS

[23] = biological target: T7, PCLO, Q9Y6V0
T7 sequence (Q9Y6V0 4491-4600, limits assumed, looked up): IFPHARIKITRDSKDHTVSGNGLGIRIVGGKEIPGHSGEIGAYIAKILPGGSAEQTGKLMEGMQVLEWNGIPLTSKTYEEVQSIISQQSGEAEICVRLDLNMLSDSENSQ

[24] = biological target: T8, PDZD7_3, Q9H5P4
T8 sequence (Q9H5P4 857-944, limits assumed, looked up): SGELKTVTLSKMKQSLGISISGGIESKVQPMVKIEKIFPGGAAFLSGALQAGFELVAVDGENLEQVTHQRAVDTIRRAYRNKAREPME

[25] = biological target: PICK1, Q9NRD5
Sequence of PICK1, Q9NRD5 (Q9NRD5 17-115): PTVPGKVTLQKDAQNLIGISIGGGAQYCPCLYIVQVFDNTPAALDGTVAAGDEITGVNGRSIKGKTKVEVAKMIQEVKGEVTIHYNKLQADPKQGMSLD

[26] = biological target: T9, SNTG2, Q9NY99
T9 sequence (Q9NY99 68-166, limits assumed, looked up): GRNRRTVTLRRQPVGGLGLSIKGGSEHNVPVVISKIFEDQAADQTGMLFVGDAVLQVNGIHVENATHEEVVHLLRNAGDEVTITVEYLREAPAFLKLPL

[27] = biological target: TJP1_3, Q07157
Sequence of TJP1_3, Q07157 (Q07157 416-512): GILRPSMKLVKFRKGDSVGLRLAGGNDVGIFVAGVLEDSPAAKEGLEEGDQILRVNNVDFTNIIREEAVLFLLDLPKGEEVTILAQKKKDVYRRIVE

[28] = biological target: T10, TX1BP3, O14907
T10 sequence (O14907 10-122, limits assumed, looked up): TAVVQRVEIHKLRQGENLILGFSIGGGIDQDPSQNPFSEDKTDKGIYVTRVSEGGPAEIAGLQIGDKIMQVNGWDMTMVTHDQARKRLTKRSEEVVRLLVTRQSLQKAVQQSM

[29] = plain residues with an end cap or a label only (N-terminal biotin on a linker: ado-ado)
[30] = plain residues with an end cap or a label only (N-terminal biotin on a linker: ttds)

- pKd [1, 29]: 4.17
- pKd [2, 29]: below the threshold
- pKd [3, 29]: below the threshold
- pKd [4, 29]: 3.8
- pKd [5, 29]: below the threshold
- pKd [6, 29]: below the threshold
- pKd [7, 29]: 4.09
- pKd [8, 29]: 3.86
- pKd [9, 29]: 3.51
- pKd [10, 29]: below the threshold
- pKd [11, 29]: 3.59
- pKd [12, 29]: below the threshold
- pKd [13, 29]: below the threshold
- pKd [14, 29]: below the threshold
- pKd [15, 29]: 3.54
- pKd [16, 29]: below the threshold
- pKd [17, 29]: below the threshold
- pKd [18, 29]: 3.54
- pKd [19, 29]: below the threshold
- pKd [20, 29]: below the threshold
- pKd [21, 29]: below the threshold
- pKd [22, 29]: below the threshold
- pKd [23, 29]: below the threshold
- pKd [24, 29]: below the threshold
- pKd [25, 29]: below the threshold
- pKd [26, 29]: below the threshold
- pKd [27, 29]: 3.48
- pKd [28, 29]: below the threshold
B1: RCN1, Q15293 (peptide)
chain: EDLTKNHDEL

- pKd [1, 29]: 3.9
- pKd [2, 29]: below the threshold
- pKd [3, 29]: 3.88
- pKd [4, 29]: below the threshold
- pKd [5, 29]: below the threshold
- pKd [6, 29]: below the threshold
- pKd [7, 29]: 3.92
- pKd [8, 29]: 3.48
- pKd [9, 29]: below the threshold
- pKd [10, 29]: below the threshold
- pKd [11, 29]: below the threshold
- pKd [12, 29]: below the threshold
- pKd [13, 29]: below the threshold
- pKd [14, 29]: below the threshold
- pKd [15, 29]: below the threshold
- pKd [16, 29]: 3.55
- pKd [17, 29]: below the threshold
- pKd [18, 29]: below the threshold
- pKd [19, 29]: below the threshold
- pKd [20, 29]: 5.32
- pKd [21, 29]: below the threshold
- pKd [22, 29]: 4.57
- pKd [23, 29]: below the threshold
- pKd [24, 29]: 5.03
- pKd [25, 29]: 4.14
- pKd [26, 29]: 4.31
- pKd [27, 29]: below the threshold
- pKd [28, 29]: 3.73
B2: KIDINS220, Q9ULH0 (peptide)
chain: GFGEERESIL

- pKd [1, 30]: below the threshold
- pKd [2, 30]: 3.64
- pKd [3, 30]: 4.37
- pKd [4, 30]: 4.06
- pKd [5, 30]: 3.9
- pKd [6, 30]: 3.78
- pKd [7, 30]: below the threshold
- pKd [8, 30]: below the threshold
- pKd [9, 30]: below the threshold
- pKd [10, 30]: below the threshold
- pKd [11, 30]: below the threshold
- pKd [12, 30]: below the threshold
- pKd [13, 30]: below the threshold
- pKd [14, 30]: below the threshold
- pKd [15, 30]: below the threshold
- pKd [16, 30]: below the threshold
- pKd [17, 30]: below the threshold
- pKd [18, 30]: below the threshold
- pKd [19, 30]: 3.57
- pKd [20, 30]: 5.97
- pKd [21, 30]: below the threshold
- pKd [22, 30]: below the threshold
- pKd [23, 30]: below the threshold
- pKd [24, 30]: 5.63
- pKd [25, 30]: below the threshold
- pKd [26, 30]: 5.22
- pKd [27, 30]: below the threshold
- pKd [28, 30]: 3.96
B3: MAP4, P27816 (peptide)
chain: LDSQIQETSI
